# The MegaScale stability set (Tsuboyama et al. 2023)
# B1: EHEE_rd2_1257 (parent)
# chain: EEERTFTNEEEARKAKKEAEKRGLRVTVTKDGTTWRVRIG
# Variants of: B1
# Assay: folding stability dG (cDNA display proteolysis); higher = more stable
# Details: PBS, room temperature
row,Variant,folding stability dG
1,EEERTFTNEEEARKSKKEAEKRGLRVTVTKDGTTWRVRIG [A15S],0.987 kcal/mol
2,EEERTFTNEEEARKMKKEAEKRGLRVTVTKDGTTWRVRIG [A15M],1.87 kcal/mol
3,EEERTFTNEEEARKYKKEAEKRGLRVTVTKDGTTWRVRIG [A15Y],3.31 kcal/mol
4,EEERTFTNEEEARKVKKEAEKRGLRVTVTKDGTTWRVRIG [A15V],1.72 kcal/mol
5,EEERTFTNEEEARKRKKEAEKRGLRVTVTKDGTTWRVRIG [A15R],0.547 kcal/mol
6,EEERTFTNEEEARKFKKEAEKRGLRVTVTKDGTTWRVRIG [A15F],3.5 kcal/mol
7,EEERTFTNEEEARKIKKEAEKRGLRVTVTKDGTTWRVRIG [A15I],1.43 kcal/mol
8,EEERTFTNEEEARKGKKEAEKRGLRVTVTKDGTTWRVRIG [A15G],-0.185 kcal/mol
9,EEERTFTNEEEARKQKKEAEKRGLRVTVTKDGTTWRVRIG [A15Q],0.698 kcal/mol
10,EEERTFTNEEEARKTKKEAEKRGLRVTVTKDGTTWRVRIG [A15T],1.19 kcal/mol
11,EEERTFTNREEARKAKKEAEKRGLRVTVTKDGTTWRVRIG [E9R],1.77 kcal/mol
12,EEERTFTNVEEARKAKKEAEKRGLRVTVTKDGTTWRVRIG [E9V],1.72 kcal/mol
13,EEERTFTNKEEARKAKKEAEKRGLRVTVTKDGTTWRVRIG [E9K],1.58 kcal/mol
14,EEERTFTNDEEARKAKKEAEKRGLRVTVTKDGTTWRVRIG [E9D],0.502 kcal/mol
15,EEERTFTNMEEARKAKKEAEKRGLRVTVTKDGTTWRVRIG [E9M],1.55 kcal/mol
16,EEERTFTNIEEARKAKKEAEKRGLRVTVTKDGTTWRVRIG [E9I],1.96 kcal/mol
17,EEERTFTNNEEARKAKKEAEKRGLRVTVTKDGTTWRVRIG [E9N],0.702 kcal/mol
18,EEERTFTNTEEARKAKKEAEKRGLRVTVTKDGTTWRVRIG [E9T],0.236 kcal/mol
19,EEERTFTNYEEARKAKKEAEKRGLRVTVTKDGTTWRVRIG [E9Y],2.73 kcal/mol
20,EEERTFTNAEEARKAKKEAEKRGLRVTVTKDGTTWRVRIG [E9A],1.76 kcal/mol
21,EEERTFTNLEEARKAKKEAEKRGLRVTVTKDGTTWRVRIG [E9L],2.01 kcal/mol

row,Variant,folding stability dG
1,EEERTFTNHEEARKAKKEAEKRGLRVTVTKDGTTWRVRIG [E9H],1.45 kcal/mol
2,EEERTFTNPEEARKAKKEAEKRGLRVTVTKDGTTWRVRIG [E9P],1.47 kcal/mol
3,EEERTFTNGEEARKAKKEAEKRGLRVTVTKDGTTWRVRIG [E9G],1.42 kcal/mol
4,EEERTFTNWEEARKAKKEAEKRGLRVTVTKDGTTWRVRIG [E9W],2.9 kcal/mol
5,EEERTFTNQEEARKAKKEAEKRGLRVTVTKDGTTWRVRIG [E9Q],1.58 kcal/mol
6,EEERTFTNSEEARKAKKEAEKRGLRVTVTKDGTTWRVRIG [E9S],1.35 kcal/mol
7,EEERTFTNFEEARKAKKEAEKRGLRVTVTKDGTTWRVRIG [E9F],2.37 kcal/mol
8,EEERTFTNEEEARKAAKEAEKRGLRVTVTKDGTTWRVRIG [K16A],3.56 kcal/mol
9,EEERTFTNEEEAWKAKKEAEKRGLRVTVTKDGTTWRVRIG [R13W],2.73 kcal/mol
10,EEERTFTNEEEAFKAKKEAEKRGLRVTVTKDGTTWRVRIG [R13F],2.73 kcal/mol
11,EEERTFTNEEEAAKAKKEAEKRGLRVTVTKDGTTWRVRIG [R13A],1.93 kcal/mol
12,EEERTFTNEEEAHKAKKEAEKRGLRVTVTKDGTTWRVRIG [R13H],2.19 kcal/mol
13,EEERTFTNEEEAIKAKKEAEKRGLRVTVTKDGTTWRVRIG [R13I],2.74 kcal/mol
14,EEERTFTNEEEAMKAKKEAEKRGLRVTVTKDGTTWRVRIG [R13M],3.15 kcal/mol
15,EEERTFTNEEEASKAKKEAEKRGLRVTVTKDGTTWRVRIG [R13S],1.82 kcal/mol
16,EEERTFTNEEEALKAKKEAEKRGLRVTVTKDGTTWRVRIG [R13L],2.96 kcal/mol
17,EEERTFTNEEEAGKAKKEAEKRGLRVTVTKDGTTWRVRIG [R13G],1.37 kcal/mol
18,EEERTFTNEEEAKKAKKEAEKRGLRVTVTKDGTTWRVRIG [R13K],2.05 kcal/mol
19,EEERTFTNEEEATKAKKEAEKRGLRVTVTKDGTTWRVRIG [R13T],2.12 kcal/mol
20,EEERTFTNEEEAYKAKKEAEKRGLRVTVTKDGTTWRVRIG [R13Y],2.92 kcal/mol
21,EEERTFTNEEEAQKAKKEAEKRGLRVTVTKDGTTWRVRIG [R13Q],2.32 kcal/mol

row,Variant,folding stability dG
1,EEERTFTNEEEAEKAKKEAEKRGLRVTVTKDGTTWRVRIG [R13E],2.22 kcal/mol
2,EEERTFTNEEEAVKAKKEAEKRGLRVTVTKDGTTWRVRIG [R13V],2.26 kcal/mol
3,EEERTFTNEEEADKAKKEAEKRGLRVTVTKDGTTWRVRIG [R13D],1.98 kcal/mol
4,EEERTFTNEEEANKAKKEAEKRGLRVTVTKDGTTWRVRIG [R13N],2.35 kcal/mol
5,EEERTFTNEEEARMAKKEAEKRGLRVTVTKDGTTWRVRIG [K14M],2.15 kcal/mol
6,EEERTFTNEEEARLAKKEAEKRGLRVTVTKDGTTWRVRIG [K14L],2.1 kcal/mol
7,EEERTFTNEEEARTAKKEAEKRGLRVTVTKDGTTWRVRIG [K14T],1.93 kcal/mol
8,EEERTFTNEEEARSAKKEAEKRGLRVTVTKDGTTWRVRIG [K14S],1.89 kcal/mol
9,EEERTFTNEEEARQAKKEAEKRGLRVTVTKDGTTWRVRIG [K14Q],2.18 kcal/mol
10,EEERTFTNEEEAREAKKEAEKRGLRVTVTKDGTTWRVRIG [K14E],2.19 kcal/mol
11,EEERTFTNEEEARDAKKEAEKRGLRVTVTKDGTTWRVRIG [K14D],1.86 kcal/mol
12,EEERTFTNEEEARWAKKEAEKRGLRVTVTKDGTTWRVRIG [K14W],1.94 kcal/mol
13,EEERTFTNEEEARYAKKEAEKRGLRVTVTKDGTTWRVRIG [K14Y],2.02 kcal/mol
14,EEERTFTNEEEARFAKKEAEKRGLRVTVTKDGTTWRVRIG [K14F],1.94 kcal/mol
15,EEERTFTNEEEARIAKKEAEKRGLRVTVTKDGTTWRVRIG [K14I],2 kcal/mol
16,EEERTFTNEEEARRAKKEAEKRGLRVTVTKDGTTWRVRIG [K14R],2.17 kcal/mol
17,EEERTFTNEEEARVAKKEAEKRGLRVTVTKDGTTWRVRIG [K14V],1.83 kcal/mol
18,EEERTFTNEEEARNAKKEAEKRGLRVTVTKDGTTWRVRIG [K14N],2.11 kcal/mol
19,EEERTFTNEEEARGAKKEAEKRGLRVTVTKDGTTWRVRIG [K14G],1.49 kcal/mol
20,EEERTFTNEEEARHAKKEAEKRGLRVTVTKDGTTWRVRIG [K14H],2.01 kcal/mol
21,EEERTFTNEEEARAAKKEAEKRGLRVTVTKDGTTWRVRIG [K14A],2.31 kcal/mol
